The values below come from patent US20240050568A1 (NANJING IASO BIOTECHNOLOGY, published 2024).

Experiment [1] concerns the target T1, CD5 antigen (Acro, CD5-H52H5) (UniProt P06127 25-371).
T1 construct: Bought protein
T1 sequence (looked up): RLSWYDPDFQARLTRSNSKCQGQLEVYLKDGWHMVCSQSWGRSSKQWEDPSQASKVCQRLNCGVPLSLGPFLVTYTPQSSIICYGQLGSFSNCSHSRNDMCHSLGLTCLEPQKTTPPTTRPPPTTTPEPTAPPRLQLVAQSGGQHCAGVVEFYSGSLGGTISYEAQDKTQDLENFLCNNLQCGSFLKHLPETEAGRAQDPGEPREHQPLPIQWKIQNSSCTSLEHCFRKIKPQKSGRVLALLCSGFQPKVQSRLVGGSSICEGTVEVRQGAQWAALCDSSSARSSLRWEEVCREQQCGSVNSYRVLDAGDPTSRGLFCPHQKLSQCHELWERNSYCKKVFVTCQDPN
As to the kind of experiment: BLI (Octet), IgG loaded on the biosensor, CD5 antigen 100 to 1.563 nM, 1:1 model.

Experiment [2] has as its target T2, fluorescent dye-labeled human CD5 protein (human, UniProt P06127 25-371, limits assumed, fluorescent dye label (dye and sites not stated)).
T2 construct: also called human CD5 antigen
T2 sequence (looked up): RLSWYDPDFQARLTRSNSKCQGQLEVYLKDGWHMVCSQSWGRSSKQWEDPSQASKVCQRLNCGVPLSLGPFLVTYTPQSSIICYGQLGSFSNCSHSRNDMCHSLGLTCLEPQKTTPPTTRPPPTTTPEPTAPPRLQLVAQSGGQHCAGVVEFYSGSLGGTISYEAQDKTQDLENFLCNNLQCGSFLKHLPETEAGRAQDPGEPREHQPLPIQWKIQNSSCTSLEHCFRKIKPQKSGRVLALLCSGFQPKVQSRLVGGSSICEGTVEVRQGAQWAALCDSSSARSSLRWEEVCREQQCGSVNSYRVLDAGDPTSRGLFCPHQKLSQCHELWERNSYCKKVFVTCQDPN
As to the kind of experiment: flow cytometry: CT125A cells with graded fluorescent human CD5 protein, percent labelled CAR+ cells fitted; 3rd time. An excerpt:
(§1) The relationship between the percentage of the fluorescence-labeled CAR+positive cells and the concentration of CD5 protein was fitted by Graphpad Prism software to calculate the affinity EC50 constant. This experiment was completed by Shanghai IASO Biotherapeutics Co., Ltd., and a total of three independent experiments were repeated.
In general terms: Flow cytometry measures light scatter and fluorescence of single cells or particles in a stream.

Experiment [3] addresses T2, fluorescent dye-labeled human CD5 …. The experiment can be described thus: flow cytometry: CT125A cells with graded fluorescent human CD5 protein; average of three experiments.
Source text: as §1

In experiment [4] the target is T3, human CD5 expressed on cells (human, UniProt P06127 25-495).
T3 sequence (looked up): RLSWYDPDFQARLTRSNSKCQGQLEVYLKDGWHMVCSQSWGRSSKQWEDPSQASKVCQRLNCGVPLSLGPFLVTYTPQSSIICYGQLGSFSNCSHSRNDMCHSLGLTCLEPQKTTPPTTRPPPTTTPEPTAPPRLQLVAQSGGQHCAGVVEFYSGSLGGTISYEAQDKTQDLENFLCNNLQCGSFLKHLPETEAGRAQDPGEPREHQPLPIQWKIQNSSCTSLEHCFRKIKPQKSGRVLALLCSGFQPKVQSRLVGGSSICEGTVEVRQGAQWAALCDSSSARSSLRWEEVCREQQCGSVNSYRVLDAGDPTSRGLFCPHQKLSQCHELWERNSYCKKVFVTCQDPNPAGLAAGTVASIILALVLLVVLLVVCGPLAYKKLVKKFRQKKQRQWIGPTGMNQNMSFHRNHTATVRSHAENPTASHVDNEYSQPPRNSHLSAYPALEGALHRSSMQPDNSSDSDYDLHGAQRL
The experiment can be described thus: cell-based or functional assay.

The target in experiment [5] is T2, fluorescent dye-labeled human CD5 …. As to the kind of experiment: flow cytometry: CT125A cells with graded fluorescent human CD5 protein, percent labelled CAR+ cells fitted; 2nd time.
Source text: as §1

For experiment [6] the target is unchanged. As to the kind of experiment: flow cytometry: CT125A cells with graded fluorescent human CD5 protein, percent labelled CAR+ cells fitted; 1st time.
Source text: as §1

Experiment [7] deals with T3, human CD5 expressed on cells. As to the kind of experiment: flow cytometry on MEC-1-CD5-Luc cells, percent positive cells fitted (called Kd in paragraph 233); 1st time. As to the method:
(§2) The relationship between the percentage of fluorescence-labeled positive CD5⁺ target cells and different concentrations of CD5 tandem single-domain antibody was analyzed by fitting using Graphpad Prism software to calculate the EC50 constant. A total of three independent repetitions were performed in this experiment.

For experiment [8] the target is unchanged. The experiment can be described thus: flow cytometry on MEC-1-CD5-Luc cells, percent positive cells fitted (called Kd in paragraph 233); 2nd time. Here is the method:
as §2

For experiment [9] the target is unchanged. As to the kind of experiment: flow cytometry on JVM-2-Luc-CD5 cells, percent positive cells fitted (called Kd in paragraph 233); 2nd time. Here is the method: as §2
Experiment [10] has the same target. The experiment can be described thus: flow cytometry on SUP-T1-Luc cells, percent positive cells fitted (called Kd in paragraph 233); 1st time. As to the method: as §2
For experiment [11] the target is unchanged. As to the kind of experiment: flow cytometry on CCRF-CEM-Luc cells, percent positive cells fitted (called Kd in paragraph 233); 2nd time. Here is the method:
as §2

Experiment [12] shares this target. The experiment can be described thus: flow cytometry on SUP-T1-Luc cells (called Kd in paragraph 233); average of three experiments. Here is the method:
as §2

For experiment [13] the target is unchanged. As to the kind of experiment: flow cytometry on JVM-2-Luc-CD5 cells, percent positive cells fitted (called Kd in paragraph 233); 3rd time. As to the method: as §2
For experiment [14] the target is unchanged. The experiment can be described thus: flow cytometry on JVM-2-Luc-CD5 cells, percent positive cells fitted (called Kd in paragraph 233); 1st time. Here is the method: as §2
The target is the same in experiment [15]. The experiment can be described thus: flow cytometry on CCRF-CEM-Luc cells, percent positive cells fitted (called Kd in paragraph 233); 1st time. Here is the method: as §2
Experiment [16] has the same target. As to the kind of experiment: flow cytometry on MEC-1-CD5-Luc cells, percent positive cells fitted (called Kd in paragraph 233); 3rd time. Here is the method: as §2
Experiment [17] has the same target. The experiment can be described thus: flow cytometry on JVM-2-Luc-CD5 cells (called Kd in paragraph 233); average of three experiments. As to the method:
as §2

Experiment [18] shares this target. The experiment can be described thus: flow cytometry on SUP-T1-Luc cells, percent positive cells fitted (called Kd in paragraph 233); 3rd time. Here is the method: as §2
Experiment [19] shares this target. The experiment can be described thus: flow cytometry on MEC-1-CD5-Luc cells (called Kd in paragraph 233); average of three experiments. As to the method:
as §2

Experiment [20] has the same target. The experiment can be described thus: flow cytometry on CCRF-CEM-Luc cells, percent positive cells fitted (called Kd in paragraph 233); 3rd time. Here is the method:
as §2

Experiment [21] shares this target. As to the kind of experiment: flow cytometry on SUP-T1-Luc cells, percent positive cells fitted (called Kd in paragraph 233); 2nd time. Here is the method: as §2
For experiment [22] the target is unchanged. As to the kind of experiment: flow cytometry on CCRF-CEM-Luc cells (called Kd in paragraph 233); average of three experiments. Here is the method: as §2

B1: FHVH3 (#61 IgG) (Fc fusion)
chain: QVQLVQSGAEVKKPGSSVKVSCKASGGTFSNYAISWVRQAPGQGLEWMGWISAYNGDTKYAQRLQGRVTMTTDTSTSTAYMELRNLRSDDTAVYYCARYESMSGQDIWGQGTLVTVSS
notes: also called #61 clone; anti-CD5 IgG; not shown: human IgG4 Fc
For orientation: Kd means the constant that tells how readily two partners part at equilibrium. A lower Kd goes with tighter binding. As a reminder, the koff is the first-order rate constant of dissociation. For orientation: kon means the second-order rate constant of association. A low value points to slower complex formation. In experiment [1], B1 yielded a Kd of 3.96 nM, a koff of 0.000288 s⁻¹ and a kon of 72800 M⁻¹ s⁻¹.

B2: FHVH3VH1 CAR (other)
chain: QVQLVQSGAEVKKPGSSVKVSCKASGGTFSNYAISWVRQAPGQGLEWMGWISAYNGDTKYAQRLQGRVTMTTDTSTSTAYMELRNLRSDDTAVYYCARYESMSGQDIWGQGTLVTVSSGGGGSGGGGSGGGGSEVQLLESGGGLVQPGGSLRLSCAASGFTFSHSAMGWVRQAPGKGLEWVSSIYARGGYTYYADSVKGRFTISRDNSKNTLYLQMNSLRAEDTAVYYCARGYHLEYMVSQDVWGQGTLVTVSSFVPVFLPAKPTTTPAPRPPTPAPTIASQPLSLRPEACRPAAGGAVHTRGLDFACDIYIWAPLAGTCGVLLLSLVITLYCNHRNKRGRKKLLYIFKQPFMRPVQTTQEEDGCSCRFPEEEEGGCELRVKFSRSADAPAYQQGQNQLYNELNLGRREEYDVLDKRRGRDPEMGGKPRRKNPQEGLYNELQKDKMAEAYSEIGMKGERRRGKGHDGLYQGLSTATKDTYDALHMQALPPR
notes: Signal peptide left out; T2A remnant at the C-terminus not written; also called CT125A; CT125A injection
One may read the EC50 as the concentration at which the effect is half-maximal. A low value points to a more potent agent. Consider B2, for which, in experiment [2], the EC50 was 1.18 nM. This molecule displayed an EC50 in experiment [3] of 2.07 nM. Besides, in experiment [4], the “cytotoxicity on CCRF-CEM-Luc cells, effector-target ratio 1:1” value stood at 95.6%; the “cytotoxicity on CCRF-CEM-Luc cells, effector-target ratio 2:1” value is 96.9%; the “cytotoxicity on JVM-2-Luc-CD5 cells, effector-to-target ratio 5:1” value is 96.4%; the “cytotoxicity on JVM-2-Luc-CD5 cells, effector-to-target ratio 10:1” value was determined as 98.5%. For the same molecule, in [4], the “cytotoxicity on MEC-1-CD5-Luc cells, effector-to-target ratio 1:1” value came out at 97.7%; the “cytotoxicity on MEC-1-CD5-Luc cells, effector-to-target ratio 2:1” value amounted to 98.2%; the “cytotoxicity on SUP-T1-Luc cells, effector-target ratio 1:1” value was 56.9%; the “cytotoxicity on SUP-T1-Luc cells, effector-target ratio 2:1” value amounted to 91%. The same molecule came in with an EC50 in experiment [5] of 1.22 nM. The same molecule had an EC50 in experiment [6] of 3.82 nM.

B3: FHVH4 (#62 IgG) (Fc fusion)
chain: QVQLVQSGAEVKKPGESLRISCKASGYSFSNHWIGWVRQKPGKGLEWMGSVYPGDSDTRYSPSFQGHVTVSADKSMNTAYLQWSSLKTSDTAMYYCARGGTIDGDYGGRQDFWGQGTMVTVSS
notes: also called anti-CD5 IgG; not shown: human IgG4 Fc
In experiment [1], B3 gave a Kd of 27.4 nM, a koff of 0.000309 s⁻¹ and a kon of 12500 M⁻¹ s⁻¹.

B4: FHVH1 (#42 IgG) (Fc fusion)
chain: EVQLLESGGGLVQPGGSLRLSCAASGFTFSHSAMGWVRQAPGKGLEWVSSIYARGGYTYYADSVKGRFTISRDNSKNTLYLQMNSLRAEDTAVYYCARGYHLEYMVSQDVWGQGTLVTVSS
notes: also called #42 clone; anti-CD5 IgG; not shown: human IgG4 Fc
Consider B4, for which, in [1], the Kd is 2.9 nM, the koff stood at 0.000139 s⁻¹ and the kon came to 48000 M⁻¹ s⁻¹.

B5: FHVH2 (#60 IgG) (Fc fusion)
chain: QVQLVESGGGLVQPGGSLRLSCAASGFTFSSYEMNWVRQAPGKGLEWVSYISSSGSTIYYADSVKGRFTISRDNAKNSLYLQMNSLRAEDTAVYYCARVAQREGDVWGKGTTVTVSS
notes: as for B3
In experiment [1], B5 displayed a Kd of 8.32 nM, a koff of 0.000212 s⁻¹ and a kon of 25500 M⁻¹ s⁻¹.

B6: FHVH3VH1 (#61-42 IgG) (Fc fusion)
chain: QVQLVQSGAEVKKPGSSVKVSCKASGGTFSNYAISWVRQAPGQGLEWMGWISAYNGDTKYAQRLQGRVTMTTDTSTSTAYMELRNLRSDDTAVYYCARYESMSGQDIWGQGTLVTVSSGGGGSGGGGSGGGGSEVQLLESGGGLVQPGGSLRLSCAASGFTFSHSAMGWVRQAPGKGLEWVSSIYARGGYTYYADSVKGRFTISRDNSKNTLYLQMNSLRAEDTAVYYCARGYHLEYMVSQDVWGQGTLVTVSS
notes: as for B3
In experiment [1], B6 yielded a Kd of 1.67 nM, a koff of 0.000189 s⁻¹ and a kon of 113000 M⁻¹ s⁻¹.

B7: CT125A tandem single-domain antibody rabbit FC fusion protein RD125 61-42 rFc (Fc fusion)
chain: QVQLVQSGAEVKKPGSSVKVSCKASGGTFSNYAISWVRQAPGQGLEWMGWISAYNGDTKYAQRLQGRVTMTTDTSTSTAYMELRNLRSDDTAVYYCARYESMSGQDIWGQGTLVTVSSGGGGSGGGGSGGGGSEVQLLESGGGLVQPGGSLRLSCAASGFTFSHSAMGWVRQAPGKGLEWVSSIYARGGYTYYADSVKGRFTISRDNSKNTLYLQMNSLRAEDTAVYYCARGYHLEYMVSQDVWGQGTLVTVSS
notes: also called CD5 tandem single-domain antibody rabbit Fc fusion protein; not shown: rabbit Fc
Take B7: the EC50 worked out at 1.3 nM in experiment [7]; 0.92 nM in [8]; 0.56 nM in [9]; 2.72 nM in [10]; 2.54 nM in [11]; 4.02 nM in experiment [12]. Besides, the EC50 was 0.72 nM in experiment [13]; 0.64 nM in experiment [14]; 3.04 nM in experiment [15]; 1.2 nM in experiment [16]; 0.64 nM in experiment [17]; 4.75 nM in experiment [18]. The EC50 in [19] was determined as 1.14 nM; in [20], 3.39 nM; in experiment [21], 4.58 nM; in experiment [22], 2.99 nM.
